Positions count from the first letter of the chain named.
T1: human IL-23R extracellular domain (ECD) protein (human, UniProt Q5VWK5 24-355)
T1 construct: Recombinant ECD; also called hu IL-23R ECD
T1 sequence: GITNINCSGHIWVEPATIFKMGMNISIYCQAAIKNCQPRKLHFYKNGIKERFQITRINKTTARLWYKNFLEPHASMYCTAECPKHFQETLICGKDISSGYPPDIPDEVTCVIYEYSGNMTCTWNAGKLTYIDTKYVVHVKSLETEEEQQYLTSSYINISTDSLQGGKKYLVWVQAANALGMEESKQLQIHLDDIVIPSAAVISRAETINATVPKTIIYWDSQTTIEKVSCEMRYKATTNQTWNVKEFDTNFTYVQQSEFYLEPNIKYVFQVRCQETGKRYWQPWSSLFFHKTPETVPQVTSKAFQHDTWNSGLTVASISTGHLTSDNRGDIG

T2: human IL-23R expressed on the cell surface of stably transfected iLite and HEK cell lines (human, UniProt Q5VWK5 24-629)
T2 construct: whole, on cells; Same receptor on two transfected cell lines; the cell line is named under assay; also called human IL-23R iLite cells; human IL-23R HEK cells
T2 sequence (looked up): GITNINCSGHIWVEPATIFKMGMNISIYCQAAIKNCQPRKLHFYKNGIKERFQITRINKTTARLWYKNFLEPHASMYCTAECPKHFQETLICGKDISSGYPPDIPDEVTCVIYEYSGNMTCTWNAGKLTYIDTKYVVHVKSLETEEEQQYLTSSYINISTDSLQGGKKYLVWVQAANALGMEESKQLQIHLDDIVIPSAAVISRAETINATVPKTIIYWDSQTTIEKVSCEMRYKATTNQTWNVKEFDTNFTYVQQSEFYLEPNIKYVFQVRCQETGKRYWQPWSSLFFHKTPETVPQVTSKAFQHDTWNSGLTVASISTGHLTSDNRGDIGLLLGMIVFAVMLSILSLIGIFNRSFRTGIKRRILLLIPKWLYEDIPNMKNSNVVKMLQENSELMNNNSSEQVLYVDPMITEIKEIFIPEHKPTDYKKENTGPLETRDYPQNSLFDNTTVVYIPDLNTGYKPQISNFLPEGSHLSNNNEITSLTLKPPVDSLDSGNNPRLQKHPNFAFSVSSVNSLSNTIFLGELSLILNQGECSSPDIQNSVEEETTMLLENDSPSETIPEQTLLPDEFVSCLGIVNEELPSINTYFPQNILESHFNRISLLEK

B1: I23RB56 (antibody, mouse IgG2a, kappa, V domains shown)
VH: EVKLVESGGGLVKPGGSLKLSCAASGFTFSSYAMSWVRQTPEKRLEWVAAINSNDGSTYYPDTVKDRFTISRDNAKNTLYLQMSSLRSEDTALYYCARHFLYFSNFYYFDYWGQGTTLTVSS
VL: DIVMTQSPKFLLVSAGDRVTITCKASQSVSNDVAWYQQKPGQSPKLLIYYASNRYTGVPDRFTGSGYGTVFTFTISTVQAEDLAVYFCQQDYSSPFTFGSGTKLEIKR
notes: immunization; mouse IgG2a/kappa
B2: I23RB332 (antibody, mouse IgG2a, kappa, V domains shown)
VH: QVQLQQPGAELVMPGASVKLSCKASGYTFTSYWMHWVKQRPGQGLEWIGEIDPSDSYTNYNQKFKGKSTLTVDKSSSTAYMQLSSLTSEDSAVYYCARSYAFDYWGQGTTVTVSS
VL: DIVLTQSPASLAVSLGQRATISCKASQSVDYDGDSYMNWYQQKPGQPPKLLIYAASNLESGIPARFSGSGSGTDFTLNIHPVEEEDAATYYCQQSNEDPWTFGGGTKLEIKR
notes: phage display; mouse V, mouse IgG2a/kappa
B3: I23RB153 (antibody, mouse IgG2a, kappa, V domains shown)
VH: EVKLVESGGGLVQPGGSLKLSCAASGFTFSSDTMSWVRQTPEKRLELVAEISSNGGSTYHIDTVKGRFTISRDNAKNTLYLQMSSLKSEDTAMYYCASPGYPWFAYWGQGTTVTVSA
VL: DIVMTQSHRFMSTSVGERVSITCKASQDVGNAVAWYQQKPGQSPKLLIYWTSTRHNGVPDRFTGSGSGTDFTLTISNVQGEDLADYFCQQYNRYPLTFGSGTKLEIKR
notes: as for B1
B4: I23RB6 (antibody, mouse IgG2a, kappa, V domains shown)
VH: QVQLVQSGAEVKKPGSSVKVSCKASGGTFSSYAISWVRQAPGQGLEWMGGIIPIFGTANYAQKFQGRVTITADESTSTAYMELSSLRSEDTAVYYCARGRYIRSYDYFDYWGQGTLVTVSS
VL: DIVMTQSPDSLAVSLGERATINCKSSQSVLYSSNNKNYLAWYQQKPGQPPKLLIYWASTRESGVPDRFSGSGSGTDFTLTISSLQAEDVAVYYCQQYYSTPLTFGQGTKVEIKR
notes: phage display; human V, mouse IgG2a/kappa
B5: I23RB328 (antibody, mouse IgG2a, kappa, V domains shown)
VH: B4 VH
VL: EIVLTQSPATLSLSPGERATLSCRASQSVSSYLAWYQQKPGQAPRLLIYDASNRATGVPARFSGSGTGTDFTLTISSLQPEDVAVYYCQQRNSTPLTFGQGTKVEIKR
notes: as for B4
B6: I23RB45 (antibody, mouse IgG2a, kappa, V domains shown)
VH: QVTLKESGPGILQPSQTLSLTCSFSGFSLSTYGMGVSWIRQPSGKGLEWLAHIYWDDDKRYNPSLKSRLTISKDTSNNQVFLKITSVDTADTATYYCAQRALPLLGQKAPFDYWGQGTTLTVSS
VL: DIVLTQSQKFISTSVGDRVSITCKASQNVRTAVAWYQQKPGQSPKLLIYLPSNRHTGVPDRFTGSGSGTVFTLTISNVQSEDQADYFCLQHWNYPLTFGAGTKLELKR
notes: as for B1
B7: I23RB30 (antibody, mouse IgG2a, kappa, V domains shown)
VH: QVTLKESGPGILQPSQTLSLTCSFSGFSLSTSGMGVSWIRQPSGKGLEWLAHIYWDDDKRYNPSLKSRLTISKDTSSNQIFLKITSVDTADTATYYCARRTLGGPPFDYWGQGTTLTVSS
VL: B6 VL with K9R, I11M, V29I, L46A, V70D, Q83L
notes: as for B1
B8: I23RB318 (antibody, mouse IgG2a, kappa, V domains shown)
VH: QVQLVQSGAEVKKPGSSVKVSCKASGGTFSSYAISWVRQAPGQGLEWMGGIIPIFGTANYAQKFQGRVTITADESTSTAYMELSSLRSEDTAVYYCARVRARHRGSFDYWGQGTLVTVSS
VL: DIQMTQSPSSLSASVGDRVTITCRASQSIDRWLNWYQQKPGKAPKLLIYYASSLQSGVPSRFSGSGSGTDFTLTISSLQPEDFATYYCQQSYSTPLTFGQGTKVEIKR
notes: as for B4
B9: I23RB42 (antibody, mouse IgG2a, kappa, V domains shown)
VH: EVQLQQSGAELVKPGASVKISCKASGYSFTDYIMNWVKQSHGKSLEWIGNINPYFGFTSYNQEFKGKATLTVDKSSSTAYMLLNSLTSEDSAVYYCSRGSYYGYETFFDYWGQGTTLTVSS
VL: DIVLTQTAPSVPVTPGESVSISCRSSKSLLHSNGNTYLYWFLQRPGQSPQLLIYRMSNLASGVPDRFSGSGSGTAFTLRISRVEAEDVGVYYCMQHLEYPYTFGSGTRLEIKR
notes: as for B1
B10: I23RB85 (antibody, mouse IgG2a, kappa, V domains shown)
VH: DVQLQESGPGLVAPSQSLSITCTVSGFSFNTYAITWVRQPPGRGLEWLGVLWPGGGISYNLALKSRLTISRDSSKSQVFLEMNSLQTDDTARYYCARNWRHYDGSYAMDFWGQGTSVTVSS
VL: DIVLTQSPLSLFVSLGDQASISCRSSQSLVHSNGNTYLHWYLQKPGQSPKLLIYKVSNRFSGVPDRFSGSGSGTDFTLKISRVEAEDLGVYFCSQSTHVPWTFGGGTRLEIKR
notes: as for B1
B11: I23RB104 (antibody, mouse IgG2a, kappa, V domains shown)
VH: EVKLVESGGGLVKPGGSLKLSCAASGFTFSSYAMSWVRQTPEKRLDWVASISTGGSTYYPDSVKGGFTISRDIARNTLSLQMTSLRSEDTAMYYCARGPHYYGGSYPFAYWGQGTTLTVSS
VL: DIQMTQSPASLSVSVGETVTITCRASENIYSNLAWYQQKQGKSPQLLVYAATNLADGVPSRFSGSGSGTQYSLKINSLQSEDFGSYYCQHFWGTPPTFGSGTKLEIKR
notes: as for B1
B12: I23RB9 (antibody, mouse IgG2a, kappa, V domains shown)
VH: QVQLVQSGAEVKKPGSSVKVSCKASGGTFSSYAISWVRQAPGQGLEWMGGIIPIFGTANYAQKFQGRVTITADESTSTAYMELSSLRSEDTAVYYCARDRSYSYGLSGLGYYGFDYWGQGTLVTVSS
VL: B5 VL with V58I, T67S, Q79E, V83F, N92S, S93N, T94W
notes: as for B4
B13: I23RB330 (antibody, mouse IgG2a, kappa, V domains shown)
VH: B12 VH
VL: B5 VL with V58I, T67S, Q79E, V83F, N92S, S93N
notes: as for B4
B14: I23RB278 (antibody, mouse IgG2a, kappa, V domains shown)
VH: EVQLLESGGGLVQPGGSLRLSCAASGFTFSSYAMSWVRQAPGKGLEWVSAISGSGGSTYYADSVKGRFTISRDNSKNTLYLQMNSLRAEDTAVYYCVRGGSLGGGFYFDYWGQGTLVTVSS
VL: not shown
notes: as for B4

Assays:
[1] = target: T1, human IL-23R extracellular domain (ECD) …; assay: column 'Affinity to hu IL-23R ECD' (summary of SPR data)
[2] = target: T2, human IL-23R expressed on the cell …; assay: flow cytometry on human IL-23R HEK cells, Expt D (8-point, 96well)
Outline: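 Serially diluted IL-23R mAbs bound to mixed HEK-IL-23R and parental HEK cells for 30 min at 37 °C, in duplicate. After washes, 647 detection antibody geometric MFI measured on single viable (Sytox Green-negative) cells and fitted to a variable-slope dose-response against log mAb concentration.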

[3] = target: T2, human IL-23R expressed on the cell …; assay: flow cytometry on human IL-23R HEK cells, Expt E (11-point, 384well)
Outline: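 Antibody bound to HEK-IL-23R cells 30 min at 37 °C over 11 concentrations; after washes, Sytox Green added and cells run on iQue. Geometric MFI of 647 detection antibody on single viable cells fitted by variable-slope dose–response.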

[4] = target: T2, human IL-23R expressed on the cell …; assay: flow cytometry on human IL-23R HEK cells, Expt D (8-point, 96well); legend: N-No cell binding observed
Description: HEK-IL-23R cell concentration response mAb binding (8-point, 96-well assay). […] HEK-IL-23R and HEK-parental cells (12.5 μL of each, 120000 cells total) were plated in 2× replicate on 96-well V-bottom plates (Corning, Cat #3357) into 37° C. warmed Assay medium containing serially diluted IL-23R mAbs to a final volume of 150 μL. IL-23R mAbs were allowed to bind to cells for 30 minutes, at 37° C. […] Cells were next washed twice in ice-cold stain buffer, then resuspended in a final volume of 30 μL with Sytox Green viability dye (ThermoFisher, Cat #S7020). Plates were kept on ice until run for analysis on the iQue. All washes were performed by centrifugation (800 rcf, 3 minutes) followed by flick decantation to remove supernatants. Cell-binding to HEK-IL-23R cells was measured with FlowJo, by gating for single, viable cells and determining the geometric mean fluorescence intensity (MFI) for the 647 detection antibody. Geometric mean fluorescence intensities were plotted over log mAb concentrations fitted with a dose response curve with variable slope using GraphPad Prism.

[5] = target: T2, human IL-23R expressed on the cell …; assay: flow cytometry on human IL-23R iLite cells, Expt A (1-point)
Description: Human IL-23R iLiTe cell single concentration mAb Binding. Anti-IL-23R mouse IgG₂ₐ mAbs derived from phage panning were tested for binding to human IL-23R expressing iLiTe cells, where a PE conjugated anti mouse secondary antibody detected mAbs bound to the receptor on the cells. […] The next day 100,000 cells were added to each well of a 96 well V bottom plate (Costar, Catalog #3357), centrifuged at 450× gravity for 2 minutes, and then supernatants were decanted. […] Antibodies diluted to 3 μg/mL in Stain Buffer (BSA) (BD Pharmagen, Catalog #554657) were added at 100 μL/well and incubated on ice for 50 minutes, then plates were centrifuged and supernatants were decanted. […] Cells were washed by adding 100 μL/well of Stain Buffer followed by centrifugation and decanting of the supernatants. Cells were resuspended in 100 μL/well of Stain Buffer and analyzed on the Becton Dickenson LSR II FACS instrument with HTS module. Data was analyzed using FlowJo software (Treestar) to obtain geometric mean fluorescence intensities.

Binder	Kd [1]	EC50 [2]	EC50 [3]	MFI (6.4 nM) [3]	binding result [4]	MFI @ 20 nM [5]
B1	26 to 68 nM	0.7 nM	> 50 nM	118000 MFI		
B2					no binding	
B3	2 nM	4.4 nM	> 50 nM	52800 MFI		
B4						139 MFI
B5					no binding	
B6	2 nM	0.4 nM	4.5 nM	228000 MFI		
B7	36 to 46 nM	1.2 nM	8.3 nM	185000 MFI		
B8	21 nM	0.5 nM	7.1 nM	196000 MFI		
B9	≤ 0.1 nM	0.2 nM	3.1 nM	353000 MFI		
B10	1 nM	~0.6 nM	13.5 nM	64000 MFI		
B11					no binding	
B12						86 MFI
B13					no binding	
B14					no binding	

— patent publication US20250179196A1 (Janssen / Centocor, published 2025)
